Data as given in US20230002460A1 (YUHAN, published 2023).

Molecular target: GDF15 receptors GFRAL and RET, overexpressed together on HEK293 cells (UniProt Q6UXV0 19-394; P07949 29-1114, limits assumed)
Test: cell-based or functional assay

Chain of GDF15 receptors GFRAL and RET, overexpressed together on HEK293 cells (Q6UXV0 19-394 limits assumed, chain 1 of 2): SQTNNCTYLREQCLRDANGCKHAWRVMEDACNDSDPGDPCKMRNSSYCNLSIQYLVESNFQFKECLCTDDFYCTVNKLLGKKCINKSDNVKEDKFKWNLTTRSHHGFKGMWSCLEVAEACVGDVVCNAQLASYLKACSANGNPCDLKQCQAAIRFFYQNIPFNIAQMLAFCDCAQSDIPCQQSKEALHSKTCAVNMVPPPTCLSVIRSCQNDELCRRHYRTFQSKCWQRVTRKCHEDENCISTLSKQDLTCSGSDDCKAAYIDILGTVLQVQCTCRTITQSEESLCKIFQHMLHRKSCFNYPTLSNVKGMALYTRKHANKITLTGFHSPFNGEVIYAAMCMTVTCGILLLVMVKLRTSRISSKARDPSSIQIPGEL
Chain of GDF15 receptors GFRAL and RET, overexpressed together on HEK293 cells (P07949 29-1114 limits assumed, chain 2 of 2): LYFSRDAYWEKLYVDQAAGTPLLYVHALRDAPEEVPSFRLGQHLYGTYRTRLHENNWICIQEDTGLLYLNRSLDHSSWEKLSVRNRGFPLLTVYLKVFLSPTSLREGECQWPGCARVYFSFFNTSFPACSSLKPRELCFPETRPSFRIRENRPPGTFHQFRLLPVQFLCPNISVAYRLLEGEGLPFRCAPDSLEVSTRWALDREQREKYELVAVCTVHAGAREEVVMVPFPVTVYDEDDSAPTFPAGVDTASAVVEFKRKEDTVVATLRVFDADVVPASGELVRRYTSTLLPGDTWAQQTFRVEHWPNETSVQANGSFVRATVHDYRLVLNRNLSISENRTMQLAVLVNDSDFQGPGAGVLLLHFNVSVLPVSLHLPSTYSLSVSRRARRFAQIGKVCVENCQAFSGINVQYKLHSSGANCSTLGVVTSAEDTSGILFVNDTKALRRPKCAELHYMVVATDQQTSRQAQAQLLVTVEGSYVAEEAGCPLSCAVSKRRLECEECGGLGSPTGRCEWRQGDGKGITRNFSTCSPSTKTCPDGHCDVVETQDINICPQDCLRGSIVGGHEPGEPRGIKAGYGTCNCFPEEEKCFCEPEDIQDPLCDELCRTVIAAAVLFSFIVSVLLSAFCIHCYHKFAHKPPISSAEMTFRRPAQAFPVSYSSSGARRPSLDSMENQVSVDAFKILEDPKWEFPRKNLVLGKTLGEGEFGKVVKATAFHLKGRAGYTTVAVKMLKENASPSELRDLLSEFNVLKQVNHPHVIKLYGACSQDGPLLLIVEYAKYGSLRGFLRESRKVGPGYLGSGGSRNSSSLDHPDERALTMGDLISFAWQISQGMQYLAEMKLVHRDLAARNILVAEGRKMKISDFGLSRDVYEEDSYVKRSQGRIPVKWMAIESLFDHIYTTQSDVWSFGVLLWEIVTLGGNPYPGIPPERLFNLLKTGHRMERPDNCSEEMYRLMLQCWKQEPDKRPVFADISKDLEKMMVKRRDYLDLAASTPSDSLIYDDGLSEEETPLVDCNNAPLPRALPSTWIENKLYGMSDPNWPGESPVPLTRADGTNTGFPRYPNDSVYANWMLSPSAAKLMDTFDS

| Binder | EC50 [nM] | Emax (%) [relative to FWT 100%] [%] |
| --- | --- | --- |
| long-acting GDF15 fusion protein ΔN2, Q51H (Fc fusion) chain 1: APALAGGPSVFLFPPKPKDTLMISRTPEVTCVVVDVSHEDPEVKFNWYVDGVEVHNAKTKPREEQYNSTYRVVSVLTVLHQDWLNGKEYKCKVSNKALPAPIEKTISKAKGQPREPQVYTLPPSREEMTKNQVSLWCLVKGFYPSDIAVEWESNGQPENNYKTTPPVLDSDGSFFLYSKLTVDKSRWQQGNVFSCSVMHEALHNHYTQKSLSLSPGKGGGGSGGGGSGGGGSGGGGSGGGGSNGDHCPLGPGRCCRLHTVRASLEDLGWADWVLSPREVQVTMCIGACPSHFRAANMHAQIKTSLHRLKPDTVPAPCCVPASYNPMVLIQKTDTGVSLQTYDDLLAKDCHCI chain 2: not shown | 24.1 | 90.8 |
| long-acting GDF15 fusion protein ΔN2, Q51E (Fc fusion) chain 1: APALAGGPSVFLFPPKPKDTLMISRTPEVTCVVVDVSHEDPEVKFNWYVDGVEVHNAKTKPREEQYNSTYRVVSVLTVLHQDWLNGKEYKCKVSNKALPAPIEKTISKAKGQPREPQVYTLPPSREEMTKNQVSLWCLVKGFYPSDIAVEWESNGQPENNYKTTPPVLDSDGSFFLYSKLTVDKSRWQQGNVFSCSVMHEALHNHYTQKSLSLSPGKGGGGSGGGGSGGGGSGGGGSGGGGSNGDHCPLGPGRCCRLHTVRASLEDLGWADWVLSPREVQVTMCIGACPSEFRAANMHAQIKTSLHRLKPDTVPAPCCVPASYNPMVLIQKTDTGVSLQTYDDLLAKDCHCI chain 2: not shown | 44.2 | 41.9 |
| long-acting GDF15 fusion protein ΔN2, Q51L (Fc fusion) chain 1: APALAGGPSVFLFPPKPKDTLMISRTPEVTCVVVDVSHEDPEVKFNWYVDGVEVHNAKTKPREEQYNSTYRVVSVLTVLHQDWLNGKEYKCKVSNKALPAPIEKTISKAKGQPREPQVYTLPPSREEMTKNQVSLWCLVKGFYPSDIAVEWESNGQPENNYKTTPPVLDSDGSFFLYSKLTVDKSRWQQGNVFSCSVMHEALHNHYTQKSLSLSPGKGGGGSGGGGSGGGGSGGGGSGGGGSNGDHCPLGPGRCCRLHTVRASLEDLGWADWVLSPREVQVTMCIGACPSLFRAANMHAQIKTSLHRLKPDTVPAPCCVPASYNPMVLIQKTDTGVSLQTYDDLLAKDCHCI chain 2: not shown | 15.2 | 88.6 |
| long-acting GDF15 fusion protein ΔN2, Q60L (Fc fusion) chain 1: APALAGGPSVFLFPPKPKDTLMISRTPEVTCVVVDVSHEDPEVKFNWYVDGVEVHNAKTKPREEQYNSTYRVVSVLTVLHQDWLNGKEYKCKVSNKALPAPIEKTISKAKGQPREPQVYTLPPSREEMTKNQVSLWCLVKGFYPSDIAVEWESNGQPENNYKTTPPVLDSDGSFFLYSKLTVDKSRWQQGNVFSCSVMHEALHNHYTQKSLSLSPGKGGGGSGGGGSGGGGSGGGGSGGGGSNGDHCPLGPGRCCRLHTVRASLEDLGWADWVLSPREVQVTMCIGACPSQFRAANMHALIKTSLHRLKPDTVPAPCCVPASYNPMVLIQKTDTGVSLQTYDDLLAKDCHCI chain 2: not shown | 11.9 | 96.3 |
| long-acting GDF15 fusion protein ΔN2, Q51N (Fc fusion) chain 1: APALAGGPSVFLFPPKPKDTLMISRTPEVTCVVVDVSHEDPEVKFNWYVDGVEVHNAKTKPREEQYNSTYRVVSVLTVLHQDWLNGKEYKCKVSNKALPAPIEKTISKAKGQPREPQVYTLPPSREEMTKNQVSLWCLVKGFYPSDIAVEWESNGQPENNYKTTPPVLDSDGSFFLYSKLTVDKSRWQQGNVFSCSVMHEALHNHYTQKSLSLSPGKGGGGSGGGGSGGGGSGGGGSGGGGSNGDHCPLGPGRCCRLHTVRASLEDLGWADWVLSPREVQVTMCIGACPSNFRAANMHAQIKTSLHRLKPDTVPAPCCVPASYNPMVLIQKTDTGVSLQTYDDLLAKDCHCI chain 2: not shown | 14.2 | 87.8 |
| long-acting GDF15 fusion protein ΔN2, Q60N (Fc fusion) chain 1: APALAGGPSVFLFPPKPKDTLMISRTPEVTCVVVDVSHEDPEVKFNWYVDGVEVHNAKTKPREEQYNSTYRVVSVLTVLHQDWLNGKEYKCKVSNKALPAPIEKTISKAKGQPREPQVYTLPPSREEMTKNQVSLWCLVKGFYPSDIAVEWESNGQPENNYKTTPPVLDSDGSFFLYSKLTVDKSRWQQGNVFSCSVMHEALHNHYTQKSLSLSPGKGGGGSGGGGSGGGGSGGGGSGGGGSNGDHCPLGPGRCCRLHTVRASLEDLGWADWVLSPREVQVTMCIGACPSQFRAANMHANIKTSLHRLKPDTVPAPCCVPASYNPMVLIQKTDTGVSLQTYDDLLAKDCHCI chain 2: not shown | 7 | 43.5 |
| long-acting GDF15 fusion protein ΔN2, Q90E (Fc fusion) chain 1: APALAGGPSVFLFPPKPKDTLMISRTPEVTCVVVDVSHEDPEVKFNWYVDGVEVHNAKTKPREEQYNSTYRVVSVLTVLHQDWLNGKEYKCKVSNKALPAPIEKTISKAKGQPREPQVYTLPPSREEMTKNQVSLWCLVKGFYPSDIAVEWESNGQPENNYKTTPPVLDSDGSFFLYSKLTVDKSRWQQGNVFSCSVMHEALHNHYTQKSLSLSPGKGGGGSGGGGSGGGGSGGGGSGGGGSNGDHCPLGPGRCCRLHTVRASLEDLGWADWVLSPREVQVTMCIGACPSQFRAANMHAQIKTSLHRLKPDTVPAPCCVPASYNPMVLIEKTDTGVSLQTYDDLLAKDCHCI chain 2: not shown | 9.3 | 10.5 |
| long-acting GDF15 fusion protein ΔN2, Q90H (Fc fusion) chain 1: APALAGGPSVFLFPPKPKDTLMISRTPEVTCVVVDVSHEDPEVKFNWYVDGVEVHNAKTKPREEQYNSTYRVVSVLTVLHQDWLNGKEYKCKVSNKALPAPIEKTISKAKGQPREPQVYTLPPSREEMTKNQVSLWCLVKGFYPSDIAVEWESNGQPENNYKTTPPVLDSDGSFFLYSKLTVDKSRWQQGNVFSCSVMHEALHNHYTQKSLSLSPGKGGGGSGGGGSGGGGSGGGGSGGGGSNGDHCPLGPGRCCRLHTVRASLEDLGWADWVLSPREVQVTMCIGACPSQFRAANMHAQIKTSLHRLKPDTVPAPCCVPASYNPMVLIHKTDTGVSLQTYDDLLAKDCHCI chain 2: not shown | 43.4 | 73.2 |
| long-acting GDF15 fusion protein ΔN2, T92E (Fc fusion) chain 1: APALAGGPSVFLFPPKPKDTLMISRTPEVTCVVVDVSHEDPEVKFNWYVDGVEVHNAKTKPREEQYNSTYRVVSVLTVLHQDWLNGKEYKCKVSNKALPAPIEKTISKAKGQPREPQVYTLPPSREEMTKNQVSLWCLVKGFYPSDIAVEWESNGQPENNYKTTPPVLDSDGSFFLYSKLTVDKSRWQQGNVFSCSVMHEALHNHYTQKSLSLSPGKGGGGSGGGGSGGGGSGGGGSGGGGSNGDHCPLGPGRCCRLHTVRASLEDLGWADWVLSPREVQVTMCIGACPSQFRAANMHAQIKTSLHRLKPDTVPAPCCVPASYNPMVLIQKEDTGVSLQTYDDLLAKDCHCI chain 2: not shown | 1.1 | 12.3 |
| long-acting GDF15 fusion protein ΔN2, D93N (Fc fusion) chain 1: APALAGGPSVFLFPPKPKDTLMISRTPEVTCVVVDVSHEDPEVKFNWYVDGVEVHNAKTKPREEQYNSTYRVVSVLTVLHQDWLNGKEYKCKVSNKALPAPIEKTISKAKGQPREPQVYTLPPSREEMTKNQVSLWCLVKGFYPSDIAVEWESNGQPENNYKTTPPVLDSDGSFFLYSKLTVDKSRWQQGNVFSCSVMHEALHNHYTQKSLSLSPGKGGGGSGGGGSGGGGSGGGGSGGGGSNGDHCPLGPGRCCRLHTVRASLEDLGWADWVLSPREVQVTMCIGACPSQFRAANMHAQIKTSLHRLKPDTVPAPCCVPASYNPMVLIQKTNTGVSLQTYDDLLAKDCHCI chain 2: not shown | 22.6 | 99.6 |
| long-acting GDF15 fusion protein ΔN2, T92S (Fc fusion) chain 1: APALAGGPSVFLFPPKPKDTLMISRTPEVTCVVVDVSHEDPEVKFNWYVDGVEVHNAKTKPREEQYNSTYRVVSVLTVLHQDWLNGKEYKCKVSNKALPAPIEKTISKAKGQPREPQVYTLPPSREEMTKNQVSLWCLVKGFYPSDIAVEWESNGQPENNYKTTPPVLDSDGSFFLYSKLTVDKSRWQQGNVFSCSVMHEALHNHYTQKSLSLSPGKGGGGSGGGGSGGGGSGGGGSGGGGSNGDHCPLGPGRCCRLHTVRASLEDLGWADWVLSPREVQVTMCIGACPSQFRAANMHAQIKTSLHRLKPDTVPAPCCVPASYNPMVLIQKSDTGVSLQTYDDLLAKDCHCI chain 2: not shown | 14.9 | 112 |
| long-acting GDF15 fusion protein ΔN2, S64Q (Fc fusion) chain 1: APALAGGPSVFLFPPKPKDTLMISRTPEVTCVVVDVSHEDPEVKFNWYVDGVEVHNAKTKPREEQYNSTYRVVSVLTVLHQDWLNGKEYKCKVSNKALPAPIEKTISKAKGQPREPQVYTLPPSREEMTKNQVSLWCLVKGFYPSDIAVEWESNGQPENNYKTTPPVLDSDGSFFLYSKLTVDKSRWQQGNVFSCSVMHEALHNHYTQKSLSLSPGKGGGGSGGGGSGGGGSGGGGSGGGGSNGDHCPLGPGRCCRLHTVRASLEDLGWADWVLSPREVQVTMCIGACPSQFRAANMHAQIKTQLHRLKPDTVPAPCCVPASYNPMVLIQKTDTGVSLQTYDDLLAKDCHCI chain 2: not shown | 7.9 | 100 |
| long-acting GDF15 fusion protein ΔN2, D93E (Fc fusion) chain 1: APALAGGPSVFLFPPKPKDTLMISRTPEVTCVVVDVSHEDPEVKFNWYVDGVEVHNAKTKPREEQYNSTYRVVSVLTVLHQDWLNGKEYKCKVSNKALPAPIEKTISKAKGQPREPQVYTLPPSREEMTKNQVSLWCLVKGFYPSDIAVEWESNGQPENNYKTTPPVLDSDGSFFLYSKLTVDKSRWQQGNVFSCSVMHEALHNHYTQKSLSLSPGKGGGGSGGGGSGGGGSGGGGSGGGGSNGDHCPLGPGRCCRLHTVRASLEDLGWADWVLSPREVQVTMCIGACPSQFRAANMHAQIKTSLHRLKPDTVPAPCCVPASYNPMVLIQKTETGVSLQTYDDLLAKDCHCI chain 2: not shown | 6.5 | 87.6 |
| long-acting GDF15 fusion protein ΔN2, D93L (Fc fusion) chain 1: APALAGGPSVFLFPPKPKDTLMISRTPEVTCVVVDVSHEDPEVKFNWYVDGVEVHNAKTKPREEQYNSTYRVVSVLTVLHQDWLNGKEYKCKVSNKALPAPIEKTISKAKGQPREPQVYTLPPSREEMTKNQVSLWCLVKGFYPSDIAVEWESNGQPENNYKTTPPVLDSDGSFFLYSKLTVDKSRWQQGNVFSCSVMHEALHNHYTQKSLSLSPGKGGGGSGGGGSGGGGSGGGGSGGGGSNGDHCPLGPGRCCRLHTVRASLEDLGWADWVLSPREVQVTMCIGACPSQFRAANMHAQIKTSLHRLKPDTVPAPCCVPASYNPMVLIQKTLTGVSLQTYDDLLAKDCHCI chain 2: not shown | 9 | 59.1 |
| long-acting GDF15 fusion protein (dimer) FM5 + Fc_hole (ΔN2, S64K) (Fc fusion) chain 1: APALAGGPSVFLFPPKPKDTLMISRTPEVTCVVVDVSHEDPEVKFNWYVDGVEVHNAKTKPREEQYNSTYRVVSVLTVLHQDWLNGKEYKCKVSNKALPAPIEKTISKAKGQPREPQVYTLPPSREEMTKNQVSLWCLVKGFYPSDIAVEWESNGQPENNYKTTPPVLDSDGSFFLYSKLTVDKSRWQQGNVFSCSVMHEALHNHYTQKSLSLSPGKGGGGSGGGGSGGGGSGGGGSGGGGSNGDHCPLGPGRCCRLHTVRASLEDLGWADWVLSPREVQVTMCIGACPSQFRAANMHAQIKTKLHRLKPDTVPAPCCVPASYNPMVLIQKTDTGVSLQTYDDLLAKDCHCI chain 2: not shown | 7.7 | 147 |
